This is an account of results in article PMC11603163.

A value given as a limit tells only on which side of the number the result lay.

The assay concerns the target CLSY3-3xF-BLRP (Arabidopsis) (UniProt F4I8S3). Briefly: co-IP; streptavidin beads (M-280 Dynabeads) capture CLSY3-3xF-BLRP from flower extracts of F1 plants crossed to NRPD1-3xF WT or CYC-AAAA; anti-FLAG western blot; dilution series of the WT co-IP.
Sequence of UniProt F4I8S3 (F4I8S3 whole entry): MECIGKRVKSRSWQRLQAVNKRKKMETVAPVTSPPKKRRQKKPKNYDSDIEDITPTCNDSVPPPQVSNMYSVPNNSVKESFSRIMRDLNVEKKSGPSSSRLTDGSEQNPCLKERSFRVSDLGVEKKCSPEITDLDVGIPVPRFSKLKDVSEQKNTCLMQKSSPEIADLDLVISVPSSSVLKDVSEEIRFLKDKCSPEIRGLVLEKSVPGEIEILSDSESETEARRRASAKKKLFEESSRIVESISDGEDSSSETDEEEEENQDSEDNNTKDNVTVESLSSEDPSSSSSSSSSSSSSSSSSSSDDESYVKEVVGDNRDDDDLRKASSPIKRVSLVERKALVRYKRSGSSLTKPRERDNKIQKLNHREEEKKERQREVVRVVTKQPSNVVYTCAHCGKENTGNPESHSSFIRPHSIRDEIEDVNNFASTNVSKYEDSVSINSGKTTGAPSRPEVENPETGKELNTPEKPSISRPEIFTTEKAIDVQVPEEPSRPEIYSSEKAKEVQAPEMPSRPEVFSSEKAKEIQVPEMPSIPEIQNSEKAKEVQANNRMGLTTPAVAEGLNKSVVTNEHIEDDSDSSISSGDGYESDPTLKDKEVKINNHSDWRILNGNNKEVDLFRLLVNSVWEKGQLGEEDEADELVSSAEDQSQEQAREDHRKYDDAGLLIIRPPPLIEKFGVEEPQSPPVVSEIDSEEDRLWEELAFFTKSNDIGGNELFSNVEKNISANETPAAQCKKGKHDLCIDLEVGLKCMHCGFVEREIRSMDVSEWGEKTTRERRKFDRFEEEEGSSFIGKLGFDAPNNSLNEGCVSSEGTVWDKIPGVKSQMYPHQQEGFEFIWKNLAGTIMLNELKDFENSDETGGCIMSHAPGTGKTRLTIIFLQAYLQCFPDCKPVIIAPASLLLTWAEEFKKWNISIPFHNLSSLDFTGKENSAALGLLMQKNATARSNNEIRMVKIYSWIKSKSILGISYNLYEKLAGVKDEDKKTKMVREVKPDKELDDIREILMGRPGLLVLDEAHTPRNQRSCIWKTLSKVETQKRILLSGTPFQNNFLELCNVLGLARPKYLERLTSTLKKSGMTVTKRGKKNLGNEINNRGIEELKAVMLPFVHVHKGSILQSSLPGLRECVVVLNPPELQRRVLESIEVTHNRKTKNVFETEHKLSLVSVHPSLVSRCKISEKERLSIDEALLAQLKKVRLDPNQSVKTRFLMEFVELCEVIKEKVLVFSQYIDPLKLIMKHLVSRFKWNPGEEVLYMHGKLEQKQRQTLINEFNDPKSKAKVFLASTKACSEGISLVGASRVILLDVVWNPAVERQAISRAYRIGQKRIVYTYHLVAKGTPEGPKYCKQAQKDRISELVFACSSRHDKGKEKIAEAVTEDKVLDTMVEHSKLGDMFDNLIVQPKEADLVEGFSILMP

For the substance “NRPD1-3xF_(CYC-AAAA) (from UniProt Q9LQ02 1-1453) (natural protein)”, the fold reduction of the co-IP against NRPD1-3xFWT was over 8 fold.
